The numbers were not newly measured in paper PMC7072806, which cites them from elsewhere.

pKd: −log10 of the molar value. Like-named read-outs stand apart in the source and are kept apart here.

Series [1] concerns the target CCR5 (Homo sapiens) (UniProt P51681).
Series [2] shares this target. Put plainly: SPR. A general note: SPR reads the build-up and loss of mass on a sensor chip optically.

Chain of UniProt P51681 (P51681 whole entry): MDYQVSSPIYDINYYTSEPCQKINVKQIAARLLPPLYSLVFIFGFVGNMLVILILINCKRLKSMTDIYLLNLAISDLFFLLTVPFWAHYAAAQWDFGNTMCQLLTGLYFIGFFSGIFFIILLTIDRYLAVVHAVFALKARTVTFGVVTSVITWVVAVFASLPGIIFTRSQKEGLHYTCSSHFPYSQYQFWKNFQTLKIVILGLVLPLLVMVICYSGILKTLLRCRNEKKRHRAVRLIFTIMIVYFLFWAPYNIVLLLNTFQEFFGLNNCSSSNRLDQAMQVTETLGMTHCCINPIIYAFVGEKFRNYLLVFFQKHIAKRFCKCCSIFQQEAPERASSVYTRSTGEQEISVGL

As a reminder, the pKd is the Kd on a negative log10 scale, so that one unit is a factor of ten. RANTES (from UniProt P13501): the pKd in the series with CCR5 (Homo sapiens) [1] is 9.40.
Regarding eNAMPT (from UniProt P43490), the pKd with CCR5 (Homo sapiens) [2] was 5.30.
